Three molecules from US20210380687A1 (ALBERT EINSTEIN COLLEGE OF MEDICINE, published 2021) can be followed below.

By Kd is commonly meant the constant that tells how readily two partners part at equilibrium. High values mean lower affinity, low ones higher affinity. As a reminder, the koff is the first-order rate constant of dissociation. One may read the kon as a measure of how fast the partners come together. Lower therefore signals slow association.

First the molecules themselves.
B1: monoclonal antibody 25C8 (antibody, V domains shown)
VH: QVQLQQSGAELVRPGTSVKVSCKASGYAFTIYLIEWVKQRPGQGLEWIGVINPGSGGTNYNEKFKGKATLTADKSSSTAFMQLSSLTSDDSAVYFCARSYYYGSFAMDYWGQGTSVTVSQ
VL: DVQMTQTISSLSASLGDRVTISCRASQDIGNYLNWYQQKPDGTVKLLIYYTSRLHSGVPSRFSGSGSGTDYSLTISNLEQEDIATYFCQQGNTLRTFGGGTKLEIKR
notes: also called mAb 25C8
B2: monoclonal antibody 36B11 (antibody, V domains shown)
VH: QIQLVQSGPDLKKPGETVKISCKASGYIFRNYGMNWVKQAPGKGLKWMGWINTYTGEPTYADDFKGRFAFSLETSASTAYLQINNLKNEDMATYFCARDCGTSHYYAMDYWGQGT
VL: DIQMTQTTSSLSASLGDRVTISCRASQDISNYLNWYQQKPDGTVKLLIYYTSRLHSGVPSRFSGSGSGTDYSLSISNLEQEDIATYFCQQGNTFPLTFGAGTKLDLKR
notes: the VH entry is cut short at its C-terminus; also called mAb 36B11
B3: monoclonal antibody 38B5 (antibody, V domains shown)
VH: QIQLVQSGPELKKPGETVKISCKASGYIFRNYGMNWVKQAPGKGLKWMGWINTYTGEPTYADDFKGRFAFSLETSASTAYLQINNLKNEDMATYFCARRGWLLTGGAMDYWGQGTSVTVSQ
VL: DIQMTQSPSSLSASLGERVSLTCRASQDIGSSLNWLQQEPDGTIKRLIYATSSLDSGVPKRFSGSRSGSDYSLTISSLESEDFVDYYCLQYVSSPWTFGGGTKLEIKR
notes: also called mAb 38B5

The target in this test is T1, human CEACAM1 (as used in Surface Plasmon Resonance) (human).
T1 chain: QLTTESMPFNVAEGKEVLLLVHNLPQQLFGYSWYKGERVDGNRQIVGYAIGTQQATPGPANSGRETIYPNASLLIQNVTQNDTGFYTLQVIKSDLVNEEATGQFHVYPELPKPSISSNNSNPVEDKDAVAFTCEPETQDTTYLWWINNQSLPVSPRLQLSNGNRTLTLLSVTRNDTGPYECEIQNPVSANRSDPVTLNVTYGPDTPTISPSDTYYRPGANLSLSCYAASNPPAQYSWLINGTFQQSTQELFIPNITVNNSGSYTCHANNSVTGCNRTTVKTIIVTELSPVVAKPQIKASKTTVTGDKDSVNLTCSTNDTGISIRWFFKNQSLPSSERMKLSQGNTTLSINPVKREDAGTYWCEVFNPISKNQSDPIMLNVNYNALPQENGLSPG
Description: Surface Plasmon Resonance.
As to B1, the affinity, expressed as Kd, was 3.88 nM; the off-rate (koff) was 0.000193 s⁻¹; the kon is 49600 M⁻¹ s⁻¹.

B2 showed a Kd of 1.42 nM, a koff of 0.000108 s⁻¹ and a kon of 76100 M⁻¹ s⁻¹.

Take B3: the Kd stood at 0.589 nM, the dissociation rate constant (koff) was found to be 0.000482 s⁻¹ and the kon was 818000 M⁻¹ s⁻¹.
